# In patent CN116514962A (THE AFFILIATED HOSPITAL OF GUANGZHOU MEDICAL UNIV GUANGZHOU …, dated 2023):
# B1: 3B7抗体 (N蛋白特异性单克隆抗体3B7) (antibody, V domains shown)
# VH: QMQLVQSGAEVKKPGASVRVSCKVSGYSLTELPMHWVRQAPGKGLEWVGSFDPQDAETTYAQRFQGRVAMTEDTSTDTAYMELSSLRSEDTAVYYCATPAPTIVGVVIYALHIWGQGTMVTVSS
# VL: EIVLTQSPGTLSLSPGERATLSCRASQRVSDNSLAWYQQKPGQAPSLLIFAASIRAPGIPDRISGTGSGTDFTLTINRLEPEDFVVYFCLQYTTSPPLTFGGGTKLEIK
# B2: N83抗体 (N蛋白特异性单克隆抗体N83) (antibody, V domains shown)
# VH: QVQLQESGPRLVKSSETLSLTCTVSGGSISSGSYYWNWIRQPAGKGLEWIGRVYISGVTSYNPSLKSRVTISLDISKNQFSLQLTSVTAADSAVYYCARGGMAVGAPLYYYFYGMDVWGQGTTVTVSS
# VL: DVVMTQSPLSLPVTPGEPASISCRSSQSLLHSNGYNYVDWYLQKPGQSPQLMIYLGSNRASGVPDRFSGSGSGTHFTLKISRVEAEDVGVYYCMQALQTLSITFGQGTRLEIK
# B3: N5抗体 (N蛋白特异性单克隆抗体N5) (antibody, V domains shown)
# VH: QVQLVQSGAEVKKPGSSVKVSCKASGGTFSSYAIGWVRQAPGQGLEWMGAIIPIFGTTIFAQKFQGRVTITADESTTTAYMELSSLRSDDTAVYYCARGGGGVERGVILTRWFDPWGQGTLVTVSS
# VL: QSVLTQPPSVSAAPGQKVTLSCSGSSSNIGNNHVSWYQQLPGTAPKLLIYDNNKRPSGIPDRFSGSKSGTSATLGITGLQTGDEADYYCGTWDNSLSAGVFGGGTKLTVV
# B4: N31抗体 (N蛋白特异性单克隆抗体N31) (antibody, V domains shown)
# VH: QMQLVQSGAEVKKPGSSVKVSCKASGGTFSSYGISWVRQAPGQGLEWMGGIIPILGTANYAQRFQGRIALTADESTSTAYMEVSSLRSEDTAVYYCARGMWSNPPGYCCSYMDVWGKGTTVTVSS
# VL: EIVLTQSPATLSVSPGERVTLACRASQSLRSKLAWYQQKPGQAPRLLIYDASTRATGFPARFSGSGSGTEFTLTISSLQSEDFAVYYCQQYSNWPRTFGQGTKLEIK
# B5: N3抗体 (N蛋白特异性单克隆抗体N3) (antibody, V domains shown)
# VH: QMQLVQSGAEVKRPGSSVKVSCKASGGTFSVYAISWVRQAPGQGLEWMGGIIPIFGTANYAQKFQGRVTLTADESTSTAYMELSSLSSEDTAVYYCARGGYCSGANCPKWGEWSHSYNYMDVWGKGTTVTVSS
# VL: not shown
# Biological target: 新型冠状病毒(SARS-CoV-2)N蛋白 (SARS-CoV-2, UniProt P0DTC9 1-419)
# Assay: not given
row,Binder,Kd [nM]
1,B1,1.94
2,B2,1.76
3,B3,< 0.001
4,B4,< 0.001

# Biological target: MERS病毒N蛋白 (MERS病毒 (MERS-CoV), UniProt K9N4V7 1-411)
# Assay: ELISA
row,Binder,binding result
1,B1,no binding
2,B2,no binding
3,B5,no binding
4,B3,no binding
5,B4,no binding

# Biological target: T1, 人冠状病毒OC43 N蛋白 (人冠状病毒OC43 (HCoV-OC43), UniProt P33469 1-448)
# T1 sequence: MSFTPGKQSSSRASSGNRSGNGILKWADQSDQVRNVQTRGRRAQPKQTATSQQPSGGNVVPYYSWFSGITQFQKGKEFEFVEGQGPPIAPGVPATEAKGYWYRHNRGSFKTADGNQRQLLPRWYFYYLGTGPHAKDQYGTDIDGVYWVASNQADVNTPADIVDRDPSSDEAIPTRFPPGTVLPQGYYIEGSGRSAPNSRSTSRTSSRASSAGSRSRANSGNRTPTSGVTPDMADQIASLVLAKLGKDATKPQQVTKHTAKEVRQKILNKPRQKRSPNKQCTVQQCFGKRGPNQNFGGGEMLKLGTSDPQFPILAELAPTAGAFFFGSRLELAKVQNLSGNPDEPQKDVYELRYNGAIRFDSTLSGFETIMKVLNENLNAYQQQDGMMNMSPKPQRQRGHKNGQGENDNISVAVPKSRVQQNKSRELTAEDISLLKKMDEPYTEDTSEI
# Assay: ELISA
row,Binder,binding result
1,B1,no binding
2,B2,no binding
3,B5,no binding
4,B3,no binding
5,B4,no binding

# Biological target: T2, 人冠状病毒HKU1 N蛋白 (人冠状病毒HKU1 (HCoV-HKU1), UniProt Q5MQC6 1-441)
# T2 sequence: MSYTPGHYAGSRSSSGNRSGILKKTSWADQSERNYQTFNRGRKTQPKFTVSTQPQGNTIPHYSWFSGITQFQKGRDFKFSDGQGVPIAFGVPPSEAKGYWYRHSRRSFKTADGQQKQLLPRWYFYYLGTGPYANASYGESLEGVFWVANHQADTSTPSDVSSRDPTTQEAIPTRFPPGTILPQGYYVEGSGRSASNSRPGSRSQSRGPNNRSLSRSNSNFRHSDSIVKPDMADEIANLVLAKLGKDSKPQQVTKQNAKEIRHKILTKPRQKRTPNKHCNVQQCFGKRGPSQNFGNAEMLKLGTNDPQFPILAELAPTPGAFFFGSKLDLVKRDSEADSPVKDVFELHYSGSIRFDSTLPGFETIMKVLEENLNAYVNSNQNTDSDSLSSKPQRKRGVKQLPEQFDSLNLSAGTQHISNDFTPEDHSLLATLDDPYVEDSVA
# Assay: ELISA
row,Binder,binding result
1,B1,no binding
2,B2,no binding
3,B5,no binding
4,B3,no binding
5,B4,no binding

# Biological target: SARS病毒N蛋白 (SARS病毒 (SARS-CoV), UniProt P59595 1-422)
# Assay: ELISA
row,Binder,binding result
1,B1,binds
2,B2,binds
3,B5,binds
4,B3,binds
5,B4,binds
